Each block holds one binder with its values, some of them ahead of it.
What was measured:
[1] = target: T1, recombinant cynomolgus monkey OX40 (Acro Biosystems, cat. no. OXO-C5220) (cynomolgus monkey, UniProt P43489 29-216 (human entry), limits assumed); assay: BLI, Ab on AHC sensor, OX40 analyte
T1 construct: bought soluble protein; also called Cyno OX40
T1 chain: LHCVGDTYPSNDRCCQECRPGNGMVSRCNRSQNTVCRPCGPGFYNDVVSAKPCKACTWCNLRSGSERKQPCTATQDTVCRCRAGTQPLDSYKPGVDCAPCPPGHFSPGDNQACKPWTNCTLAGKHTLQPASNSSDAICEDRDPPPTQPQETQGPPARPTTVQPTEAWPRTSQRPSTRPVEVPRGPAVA
Experimental: (§1) Experiments were carried out while shaking at 1,000 RPM at 30° C. […] Next, AHC sensors were loaded with antibody (1 μg/mL in Sample Diluent) for 600 s. After a baseline measurement in sample diluent (100 s), the association (200 s) and dissociation (1,000 s) of human OX40 (Acro Biosystems, cat. no. OXO-H5224), and cynomolgus monkey OX40 (Acro Biosystems, cat. no. OXO-C5220) was determined using a concentration range of 0.78 to 800 nM with 2-fold dilution steps.
(§2) Data were acquired using Data Acquisition Software v12.0 (Sartorius) and analyzed with Data Analysis Software v12.0 (Sartorius). Data traces were corrected per antibody by subtraction of the reference sensor. The Y-axis was aligned to the last 10 s of the baseline and Interstep Correction alignment to dissociation as well as Savitzky-Golay filtering were applied. Data traces with a response<0.05 nm were excluded from analysis. […] The data was fitted with the 1:1 model using a window of interest for the association of 200 s and dissociation times set at 50 s, 200 s and 1,000 s. The dissociation time was chosen based upon R² value, visual inspection of the curve and at least 5% signal decay during the dissociation step.

[2] = target: T1, recombinant cynomolgus monkey OX40 …; assay: BLI, Ab on AHC sensor, OX40 analyte; * binding observed, less reliable fit
Experimental: as §1, §2

[3] = target: T2, human FcγRIa, cell surface-expressed (human, UniProt P12314 16-374); assay: flow cytometry, ExpiCHO-S cells transfected with human FcγRIa
T2 construct: whole, on cells; also called CD64; FcγR1a on ExpiCHO-S cells
T2 sequence (P12314 16-374): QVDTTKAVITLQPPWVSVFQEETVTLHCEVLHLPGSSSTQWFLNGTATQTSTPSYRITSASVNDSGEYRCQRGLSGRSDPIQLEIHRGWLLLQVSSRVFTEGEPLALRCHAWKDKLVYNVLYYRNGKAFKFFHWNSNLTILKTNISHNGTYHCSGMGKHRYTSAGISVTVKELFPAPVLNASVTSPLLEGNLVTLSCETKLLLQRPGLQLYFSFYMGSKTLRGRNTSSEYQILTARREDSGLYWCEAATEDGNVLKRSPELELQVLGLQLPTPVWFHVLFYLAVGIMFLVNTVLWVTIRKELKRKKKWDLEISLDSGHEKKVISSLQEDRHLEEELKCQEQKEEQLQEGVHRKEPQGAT

Kd [1]: 7.1 nM
koff [1]: 0.0018 s⁻¹
kon [1]: 260000 M⁻¹ s⁻¹
B1: IgG1-CD134-007 (antibody)
heavy: not shown
light: AQVLTQTPSPVSAAVGGTVTISCQSSESVWNNNWLAWYQQKPGQPPNLLIYEASTLASGVSSRFKGSGSGTQFTLTVSEVQSDDAATYYCQGGYYDSSPIWTFGGGTEVVVKRTVAAPSVFIFPPSDEQLKSGTASVVCLLNNFYPREAKVQWKVDNALQSGNSQESVTEQDSKDSTYSLSSTLTLSKADYEKHKVYACEVTHQGLSSPVTKSFNRGEC
notes: rabbit-human chimeric IgG1

Kd [2]: 180 nM
koff [2]: 0.018 s⁻¹
kon [2]: 98000 M⁻¹ s⁻¹
B2: IgG1-CD134-012 (antibody)
heavy: not shown
light: DIVMTQTPASVEAAVGGTVTIKCQASENIYSSLAWYQQKPGQPPKLLIYRTSTLASGVPSRFKGSGSGTQFTLTISDLESDDAATYYCQSYYHNSGGGYDYGFGGGTEVVAKRTVAAPSVFIFPPSDEQLKSGTASVVCLLNNFYPREAKVQWKVDNALQSGNSQESVTEQDSKDSTYSLSSTLTLSKADYEKHKVYACEVTHQGLSSPVTKSFNRGEC
notes: rabbit-human chimeric IgG1

EC50 (read off the curve) [3]: ~0.7 µg/mL
Kd [1]: 3.5 nM
koff [1]: 0.00096 s⁻¹
kon [1]: 280000 M⁻¹ s⁻¹
B3: IgG1-CD134-003 (antibody)
heavy: not shown
light: AAVLTQTPSPVSAAVGGTVTIKCQSSQIVVNNNFLSWYQQKPGQPPKLLIYDASNLASGVPDRFSGSGSGTQFTLTISGVQSDDAATYYCLGGYDDDAENAFGGGTEVVVQRTVAAPSVFIFPPSDEQLKSGTASVVCLLNNFYPREAKVQWKVDNALQSGNSQESVTEQDSKDSTYSLSSTLTLSKADYEKHKVYACEVTHQGLSSPVTKSFNRGEC
notes: rabbit-human chimeric, wild-type IgG1 Fc

binding result [3]: binds
B4: IgG1-CD134-003-HC6LC2 (antibody)
heavy: not shown
light: AAVLTQSPSSLSASVGDRVTITCQSSQIVVNNNFLSWYQQKPGKAPKLLIYDASNLASGVPDRFSGSGSGTDFTFTISSLQPEDIATYYCLGGYDDDAENAFGGGTKVEIKRTVAAPSVFIFPPSDEQLKSGTASVVCLLNNFYPREAKVQWKVDNALQSGNSQESVTEQDSKDSTYSLSSTLTLSKADYEKHKVYACEVTHQGLSSPVTKSFNRGEC
notes: variant of m1 without Fc mutations

Kd [1]: 27 nM
koff [1]: 0.0029 s⁻¹
kon [1]: 110000 M⁻¹ s⁻¹
B5: IgG1-CD134-003-HC6LC2-P329R-E345R (antibody)
heavy: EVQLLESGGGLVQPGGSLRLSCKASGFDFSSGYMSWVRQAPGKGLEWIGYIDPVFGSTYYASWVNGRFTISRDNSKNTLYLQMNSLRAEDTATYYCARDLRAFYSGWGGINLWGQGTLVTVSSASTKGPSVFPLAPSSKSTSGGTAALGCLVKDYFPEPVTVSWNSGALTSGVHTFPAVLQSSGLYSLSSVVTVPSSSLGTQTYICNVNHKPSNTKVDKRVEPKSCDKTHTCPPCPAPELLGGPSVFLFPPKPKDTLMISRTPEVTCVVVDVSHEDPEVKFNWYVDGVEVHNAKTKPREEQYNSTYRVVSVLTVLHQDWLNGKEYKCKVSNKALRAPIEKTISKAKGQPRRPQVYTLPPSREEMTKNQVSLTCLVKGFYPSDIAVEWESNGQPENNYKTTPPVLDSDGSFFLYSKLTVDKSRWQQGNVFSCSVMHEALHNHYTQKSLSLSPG
light: B4 light
notes: humanized; human IgG1 with P329R and E345R (Eu); also called IgG1-CD134-003-HC6LC2-RR

Reference: US20240376221A1 (Genmab, published 2024)
